T1: Gal4 DNA-BD-Grb14 fusion (full length Grb14, GRB14/pAS2.1)
T1 chain: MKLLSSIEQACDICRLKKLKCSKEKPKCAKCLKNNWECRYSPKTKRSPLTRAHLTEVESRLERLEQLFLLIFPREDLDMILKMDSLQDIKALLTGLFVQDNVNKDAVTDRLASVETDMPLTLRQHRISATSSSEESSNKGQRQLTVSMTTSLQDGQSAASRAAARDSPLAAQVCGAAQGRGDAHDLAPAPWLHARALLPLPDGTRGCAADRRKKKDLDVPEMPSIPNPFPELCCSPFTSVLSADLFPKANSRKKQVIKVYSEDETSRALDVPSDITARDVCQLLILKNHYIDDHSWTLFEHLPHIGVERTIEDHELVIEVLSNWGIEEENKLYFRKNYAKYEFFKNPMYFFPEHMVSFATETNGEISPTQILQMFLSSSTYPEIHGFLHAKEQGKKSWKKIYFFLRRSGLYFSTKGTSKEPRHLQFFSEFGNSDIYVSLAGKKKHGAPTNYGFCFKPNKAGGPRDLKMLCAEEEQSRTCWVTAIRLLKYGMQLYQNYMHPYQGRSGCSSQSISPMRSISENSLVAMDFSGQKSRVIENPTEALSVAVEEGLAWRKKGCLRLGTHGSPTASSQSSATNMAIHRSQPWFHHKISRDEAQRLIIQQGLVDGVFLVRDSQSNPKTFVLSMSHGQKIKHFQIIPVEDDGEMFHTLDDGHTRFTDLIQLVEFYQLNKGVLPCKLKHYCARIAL

B1: original 2.2412 cDNA clone in pACT-2 (nucleotides 694-2664 of FIG. 1, polypeptide of 657 amino acids) (other, not shown: large carriers)
chain: ERLAYEFKGHSLLQAAREADVTRIKKHLSLEMVNFKHPQTHETALHCAAASPYPKRKQICELLLRKGANINEKTKEFLTPLHVASEKAHNDVVEVVVKHEAKVNALDNLGQTSLHRAAYCGHLQTCRLLLSYGCDPNIISLQGFTALQMGNENVQQLLQEGISLGNSEADRQLLEAAKAGDVETVKKLCTVQSVNCRDIEGRQSTPLHFAAGYNRVSVVEYLLQHGADVHAKDKGGLVPLHNACSYGHYEVAELLVKHGAVVNVADLWKFTPLHEAAAKGKYEICKLLLQHGADPTKKNRDGNTPLDLVKDGDTDIQDLLRGDAALLDAAKKGCLARVKKLSSPDNVNCRDTQGRHSTPLHLAAGYNNLEVAEYLLQHGADVNAQDKGGLIPLHNAASYGHVDVAALLIKYNASLNATDKWAFTPLHEAAQKGRTQLCALLLAHGADPTLKNQEGQTPLDLVSADDVSALLTAAMPPSALPSCYKPQVLNGVRSPGATADALSSGPSSPSSLSAASSLDNLSGSFSELSSVVSSSGTEGASSLEKKEVPGVDFSITQFVRNLGLEHLMDIFEREQITLDVLVEMGHKELKEIGINAYGHRHKLIKGVERLISGQQGLNPYLTLNTSGSGTILIDLSPDDKEFQSVEEEMQSTVREHR
B2: Htk partial cDNA clone in pACT2 (intracellular region and part of the extracellular domain) (receptor, human, UniProt P54760 436-987, looked up, not shown: large carriers)
chain: AVSDIRVTRSSPSSLSLAWAVPRAPSGAVLDYEVKYHEKGAEGPSSVRFLKTSENRAELRGLKRGASYLVQVRARSEAGYGPFGQEHHSQTQLDESEGWREQLALIAGTAVVGVVLVLVVIVVAVLCLRKQSNGREAEYSDKHGQYLIGHGTKVYIDPFTYEDPNEAVREFAKEIDVSYVKIEEVIGAGEFGEVCRGRLKAPGKKESCVAIKTLKGGYTERQRREFLSEASIMGQFEHPNIIRLEGVVTNSMPVMILTEFMENGALDSFLRLNDGQFTVIQLVGMLRGIASGMRYLAEMSYVHRDLAARNILVNSNLVCKVSDFGLSRFLEENSSDPTYTSSLGGKIPIRWTAPEAIAFRKFTSASDAWSYGIVMWEVMSFGERPYWDMSNQDVINAIEQDYRLPPPPDCPTSLHQLMLDCWQKDRNARPRFPQVVSALDKMIRNPASLKIVARENGGASHPLLDQRQPHYSAFGSVGEWLRAIKMGRYEESFAAAGFGSFELVSQISAEDLLRIGVTLAGHQKKILASVQHMKSQAKPGTPGGTGGPAPQY
B3: Nedd4 partial cDNA clone in pACT2 (CaLB domain together with the first 22 amino acids of the first WW domain) (other, human, UniProt P46934-4 1-212, looked up, not shown: large carriers)
chain: MATCAVEVFGLLEDEENSRIVRVRVIAGIGLAKKDILGASDPYVRVTLYDPMNGVLTSVQTKTIKKSLNPKWNEEILFRVHPQQHRLLFEVFDENRLTRDDFLGQVDVPLYPLPTENPRLERPYTFKDFVLHPRSHKSRVKGYLRLKMTYLPKTSGSEDDNAEQAEELEPGWVVLDQPDAACHLQQQQEPSPLPPGWEERQDILGRTYYVNH
B4: Gal4 DNA-BD fusion of the Grb14 central region (amino acids 110-437) in pAS2.1 (other, UniProt P04386 1-147, looked up)
chain: MKLLSSIEQACDICRLKKLKCSKEKPKCAKCLKNNWECRYSPKTKRSPLTRAHLTEVESRLERLEQLFLLIFPREDLDMILKMDSLQDIKALLTGLFVQDNVNKDAVTDRLASVETDMPLTLRQHRISATSSSEESSNKGQRQLTVSIKVYSEDETSRALDVPSDITARDVCQLLILKNHYIDDHSWTLFEHLPHIGVERTIEDHELVIEVLSNWGIEEENKLYFRKNYAKYEFFKNPMYFFPEHMVSFATETNGEISPTQILQMFLSSSTYPEIHGFLHAKEQGKKSWKKIYFFLRRSGLYFSTKGTSKEPRHLQFFSEFGNSDIYVSLAGKKKHGAPTNYGFCFKPNKAGGPRDLKMLCAEEEQSRTCWVTAIRLLKYGMQLYQNYMHPYQGRSGCSSQSISPMRSISENSLVAMDFSGQKSRVIENPTEALSVAVEEGLAWRKKGCLRLGTHGSPTASSQSSATNMAIHRSQ
B5: Gal4 DNA-BD fusion of the Grb14 N-terminus (amino acids 1-110) in pAS2.1 (other, UniProt P04386 1-147, looked up)
chain: MKLLSSIEQACDICRLKKLKCSKEKPKCAKCLKNNWECRYSPKTKRSPLTRAHLTEVESRLERLEQLFLLIFPREDLDMILKMDSLQDIKALLTGLFVQDNVNKDAVTDRLASVETDMPLTLRQHRISATSSSEESSNKGQRQLTVSMTTSLQDGQSAASRAAARDSPLAAQVCGAAQGRGDAHDLAPAPWLHARALLPLPDGTRGCAADRRKKKDLDVPEMPSIPNPFPELCCSPFTSVLSADLFPKANSRKKQVI
B6: L-arginine:glycine amidinotransferase cDNA clone in pACT2 (protein)
chain: ASSRNSCAADDKATEPLPKDCPVSSYNEWDPLEEVIVGRAENACVPPFTIEVKANTYEKYWPFYQKQGGHYFPKDHLKKAVAEIEEMCNILKTEGVTVRRPDPIDWSLKYKTPDFESTGLYSAMPRDILIVVGNEIIEAPMAWRSRFFEYRAYRSIIKDYFHRGAKWTTAPKPTMADELYNQDYPIHSVEDRHKLAAQGKFVTTEFEPCFDAADFIRAGRDIFAQRSQVTNYLGIEWMRRHLAPDYRVHIISFKDPNPMHIDATFNIIGPGIVLSNPDRPCHQIDLFKKAGWTIITPPTPIIPDDHPLWMSSKWLSMNVLMLDEKRVMVDANEVPIQKMFEKLGITTIKVNIRNANSLGGGFHCWTCDVRRRGTLQSYLD

Columns and labels:
[1] = target: Gal4 DNA-BD-Grb14 fusion (full length Grb14, GRB14/pAS2.1) (S. cerevisiae) (UniProt P04386); assay: cell-based or functional assay
[2] = target: Gal4 DNA-BD-Grb14 fusion (full length Grb14, GRB14/pAS2.1) (S. cerevisiae, UniProt P04386 1-147; Q14449 1-540); assay: cell-based or functional assay
[3] = target: B1; assay: yeast two hybrid, liquid- or filter-based beta-galactosidase assays
Description: (§1) These fragments spanned the following regions: N-terminus (“N”. amino acids 1-110), the central region (“C”) encompassing the mig10 homology and the “between PH and SH2” (BPS) domain (amino acids 110-437) and the N-terminal and central regions (“N+C”, amino acids 1-437). These plasmids were individually transformed into the yeast strain Y190 (MATα, ura3-52, his3-200, ade2-101, lys2-801, trp1-901, leu2-3, 112, gal4Δ, gal80Δ, cyh^r2, LYS2::GAL1UAS-HIS3TATA-HIS3, URA3::GAL1UAS-GAL1TATA-lacZ) and expression of the appropriately sized Gal4 DNA-BD fusion proteins confirmed by Western blotting.

[4] = target: B1; assay: yeast two hybrid in strain Y190, liquid- or filter-based beta-galactosidase assays
Description: as §1

[5] = target: T1, Gal4 DNA-BD-Grb14 fusion (full length …)

Proteosome cDNA clone in pACT2 (from UniProt P04386 768-881)
Mean RLU (Liquid assay), beta-galactosidase activity [1]: 388 RLU

Somatostatin receptor cDNA clone in pACT2
Mean RLU (Liquid assay), beta-galactosidase activity [1]: 1450 RLU

B1
Mean RLU (Liquid assay), beta-galactosidase activity [2]: 5.18e+06 RLU

B2
Mean RLU (Liquid assay), beta-galactosidase activity [2]: 186000 RLU

B3
Mean RLU (Liquid assay), beta-galactosidase activity [2]: 2.86e+06 RLU

B4
binding result [3]: no binding

B5
binding result [4]: binds

B6
Colour intensity (Filter assay), beta-galactosidase [5]: +/-
Mean RLU (Liquid assay), beta-galactosidase activity [5]: 861 RLU

Source: patent US20020037582A1 (published 2002)
